{"source": "paper PMC6180082", "about": "“Structural Analysis of an Epitope Candidate of Triosephosphate Isomerase in Opisthorchis viverrini” (Scientific Reports, 2018)", "proteins": {"B1": {"name": "Triosephosphate isomerase from Opisthorchis viverrini (OvTIM), wild-type (enzyme)", "chain": "MPTDRKFFVGGNWKMNGSKKENDKLIEMLTHAKIDPNTEVLVAPPSLYLPSVREKLDKRFHVAAQNCYKVPSGAFTGEVSPAMLKDVGCDWVILGHSERRHILMETDQLVGEKTNHAISAGVNVIACIGEKLEEREAGKTEEVCFRQMEAIRKNLSSADMWNHIVIAYEPVWAIGTGKTATEQQAQEVHLAVRKWMEEKVSPAVANSIRIIYGGSVTAANCRTLAKQPDVDGFLVGGASLKPDFIEICNANA", "notes": "Triosephosphate isomerase (EC 5.3.1.1) of Opisthorchis viverrini; cDNA synthesized and cloned NdeI/XhoI into pET17b with a 6 His-tag and thrombin site; residues 175-179 have no clear electron density in the crystal; a thrombin site lies between tag and protein; source: E. coli BL21 (DE3) pLysS, purified (HisTrap HP, HiTrap Q HP, Superdex-200 SEC)"}}, "target": "the molecule itself", "experiment": "crystal structure; OvTIM wild-type at ~80 mg/ml, hanging-drop vapor diffusion, 0.3 M magnesium chloride hexahydrate, 0.1 M Tris pH 8.5, 22% PEG 3350, 20 °C; molecular replacement; two homodimers in the asymmetric unit", "data": [{"protein": "B1", "values": [{"measurement": "binding result", "value": "binds"}]}]}
